Patent US20100196361A1, “Method of inhibition of vascular development using an antibody” (DYAX CORP., priority 2003, published 2010)

How the values were obtained:
Tie1 = Tie1 (Homo sapiens, UniProt P35590); experiment: Tie1 phosphorylation assay; assay type: cell-based; design: an expression vector containing a V5-tagged full length Tie1 cDNA; expressed in transfected cells; host or cells: COS1
Procedure: Tie1 phosphorylation assay. COS1 cells were transfected with pcDNA3-Tie1-V5. After 24 h of transfection, the cells were serum starved for 8 h and then treated with E3 IgG. For the Tie1 phosphorylation assay, HDMVECs were cultured on 10 cm dishes to near confluence, starved (8-16 h) in serum free medium and stimulated as indicated. After the stimulations, the cells were lysed in lysis buffer (RIPA-DOC: 50 mM Tris-HCl pH 8.0, 150 mM NaCl, 1% Triton-X-100, 0.1% SDS, 0.5% DOC, 10 mM EDTA, supplemented with aprotinin, leupeptin, PMSF and sodium vanadate). Clarified lysates from transfected COS 1 cells or HDMVECs were immunoprecipitated with anti-V5 or anti-Tie1 B9, respectively. Proteins were separated by SDS-PAGE, transferred to nitrocellulose and immunoblotted using the anti-phosphotyrosine and anti-Tie1 (R&D systems) antibodies.
To test if the E3 IgG binding to the extracellular region of Tie1 induces autophosphorylation of Tie1, the Tie1 receptor phosphorylation level in response to E3 IgG treatment was studied in transiently transfected COS 1 cells and human primary endothelial cells. COS 1 cells were transfected with an expression vector containing a V5-tagged full length Tie1 cDNA, and, after serum starvation, the cells were treated with E3 IgG (200 ng/ml). Cell lysates were extracted at several time points and Tie1 was immunoprecipitated with anti-V5 followed by western blotting using anti-phosphotyrosine and anti-Tie1 antibodies. […] To determine if E3 IgG induces Tie1 phosphorylation in primary endothelial cells, HDMVEC cells were serum starved and stimulated with several concentrations of E3 for 60 min. […] Also higher concentrations of E3 (500-1000 ng/ml) induced Tie1 phosphorylation but the response was more rapid and was most prominent after 5 min of stimulation.
To study the kinetics of E3 IgG induced Tie1 activation, cells were stimulated with E3 IgG (200 ng/ml) and receptor phosphorylation was studied at various time points. Tie1 phosphorylation was highest 15-30 min after E3 IgG treatment but phosphorylation persisted for up to 1 h.

HUVEC = experiment: Flow cytometry on HUVEC control cells; assay type: binding, human
Procedure: Specific binding of the Tie1 antibodies and of control Mabs to mouse endothelial cells was measured by flow cytometry analysis (FACSscan, Becton Dickinson, Oxnard, Epics, Coulter). Mouse endothelial cell lines MS1, Le-2, Bend3, SVEC (ATCC, Rockville) and Tie1 transfected Le-2 cells were stained. Cell staining was modified from existing protocols. About 200,000 cells were used in each experiment: after trypsinization, cells were washed one time in PBS and resuspended PBS, 10% heat inactivated human serum (incubation buffer). To test specificity, antibodies were incubated at different dilutions for 1 h at room temperature. Cells were spun down by centrifugation for 3 min at 611 g. Between incubations cells were washed twice with PBS. […] After the final incubation step bound antibodies were detected by means of flow cytometry on a FACSCan and Epics Altra (Becton Dickinson, Oxnard, Coulter) and results analyzed.
Intracellular Tie1 was measured as described above, except for the addition of Saponin to the incubation buffer to a final concentration of 0.1% during incubations. […] The binding pattern in mouse cell lines detected by flow cytometry is different from the binding pattern in HUVEC in that in mouse cells there is a greater cell surface staining than that compared to primary human endothelial cell lines. […]

Sequence of Tie1 (P35590 22-1138): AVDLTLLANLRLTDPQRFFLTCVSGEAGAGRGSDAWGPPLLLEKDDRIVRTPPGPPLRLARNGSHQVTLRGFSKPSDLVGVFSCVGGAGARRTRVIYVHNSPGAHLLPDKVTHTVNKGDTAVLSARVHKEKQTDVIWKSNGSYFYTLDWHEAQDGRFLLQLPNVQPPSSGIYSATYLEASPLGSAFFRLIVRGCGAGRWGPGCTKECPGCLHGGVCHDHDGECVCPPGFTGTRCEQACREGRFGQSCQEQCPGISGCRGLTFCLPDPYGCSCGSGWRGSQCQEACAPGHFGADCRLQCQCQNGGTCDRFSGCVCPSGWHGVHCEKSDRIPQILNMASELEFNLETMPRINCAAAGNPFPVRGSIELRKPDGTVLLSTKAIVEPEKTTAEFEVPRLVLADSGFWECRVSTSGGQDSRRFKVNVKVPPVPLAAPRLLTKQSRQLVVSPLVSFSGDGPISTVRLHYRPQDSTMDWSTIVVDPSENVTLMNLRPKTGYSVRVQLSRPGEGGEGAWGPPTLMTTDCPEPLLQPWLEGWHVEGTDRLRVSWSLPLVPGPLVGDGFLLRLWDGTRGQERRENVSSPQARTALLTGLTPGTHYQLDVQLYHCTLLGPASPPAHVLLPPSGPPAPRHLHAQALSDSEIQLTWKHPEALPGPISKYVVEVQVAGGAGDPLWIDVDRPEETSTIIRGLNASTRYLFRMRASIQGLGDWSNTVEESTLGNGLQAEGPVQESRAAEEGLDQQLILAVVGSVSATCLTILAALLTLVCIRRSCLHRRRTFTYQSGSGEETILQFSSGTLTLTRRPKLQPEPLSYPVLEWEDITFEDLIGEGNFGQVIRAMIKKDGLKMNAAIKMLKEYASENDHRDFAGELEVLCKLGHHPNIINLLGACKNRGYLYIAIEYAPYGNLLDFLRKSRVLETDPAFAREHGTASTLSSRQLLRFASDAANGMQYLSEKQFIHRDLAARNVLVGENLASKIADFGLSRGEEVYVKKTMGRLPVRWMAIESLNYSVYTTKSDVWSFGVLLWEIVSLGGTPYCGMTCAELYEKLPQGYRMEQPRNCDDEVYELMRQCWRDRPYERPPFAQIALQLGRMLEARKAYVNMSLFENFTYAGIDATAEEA

Molecule	persistence of Tie1 phosphorylation (Tie1; 200 ng/ml)	time of highest Tie1 phosphorylation (Tie1; 200 ng/ml)	concentration giving receptor phosphorylation (Tie1; HDMVEC, serum starved, 60 min stimulation)	time of most prominent Tie1 phosphorylation (Tie1; HDMVEC, 500-1000 ng/ml)	staining of HUVEC control cells (HUVEC)
E3: human anti-Tie1 antibody from phage Fab library, reformatted as IgG; HC variable SEQ ID NO:114, LC variable SEQ ID NO:116 (antibody, V domains shown, IgG constant regions; Synthetically generated peptide) VH: EVQLLESGGGLVQPGGSLRLSCAASGFTFSMYGMVWVRQAPGKGLEWVSVISPSGGNTGYADSVKGRFTISRDNSKNTLYLQVNSLRAEDTAVYYCARAPRGYSYGYYYWGQGTLVTVSSASTKGPSVFPLAPSSKSTSGG VL: DIQMTQSPLSLSASVGDRVTITCRASQGIGHYLAWYQQKPGKVPKLLIYTASTLQSGVPSRFSGSGSGTDFTLTINSLQPEDVATYYCQQFNSYPHTFGQGTRLDIK	up to 1 h	15 to 30 min	50 to 200 ng/mL	5 min	
DX-2210: E3 antibody in which the light chain has been germlined (antibody, V domains shown) VH: EVQLLESGGGLVQPGGSLRLSCAASGFTFSMYGMVWVRQAPGKGLEWVSVISPSGGNTGYADSVKGRFTISRDNSKNTLYLQVNSLRAEDTAVYYCARAPRGYSYGYYYWGQGTLVTVSSASTKGPSVFPLAPSSKSTSGG VL: DIQMTQSPSSLSASVGDRVTITCRASQGIGHYLAWYQQKPGKVPKLLIYTASTLQSGVPSRFSGSGSGTDFTLTISSLQPEDVATYYCQQFNSYPHTFGQGTRLEIK					stained positively
